The values that follow come from the nanobody polyreactivity screen of Harvey et al. (2022).

This data set is described as follows: yeast display, Sf9 membrane polyspecificity reagent, FACS + sequencing; frameworks hold sequencing errors. The method, boiled down:
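Galactose-induced (36–48 hours) yeast carrying a synthetic nanobody display library were exposed to 10% biotinylated, detergent-solubilized Sf9 membrane reagent at 4 °C for 1 hour. FACS followed streptavidin microbead enrichment, using low and high (top ~1%) gates for expression (anti-HA) and reagent binding (streptavidin). Colony PCR, MiSeq 2 × 250 sequencing and CDR-length filtering followed. Labels for polyreactivity reflect the gate of origin.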
In the case of “QVQLVESGGGLVQAGGSLRLSCAASGSIFWYYAMGWYRQAPGKERELVAAISISGSTYYADSVKGRFTISRDNAKNTVYLQMNSLKPEDTAVYYCAARKFFWRSNYDYWGQGTQVNVSS”, the “polyreactivity (PSR sort gate)” value was “low polyreactivity”.
Turning to “QVQLVESGGGLVQAGGSLRLSCAASGSIFWYYDMGWYRQAPGKERELVATISRTGRTYYADSVKGRFTISRDNAKNTVYLQMNSLKPEDTAVYYCAAVPRGWFSYPSGYDYWGQGTQVTVSS”, the “polyreactivity (PSR sort gate)” value is given as “high polyreactivity”.
With “QVQLVESGGGLVQAGGSLRLSCAASGSIFWYYGMGWYRPAPAKERELVAAISSGGSTNYADSVKGRFAISRDNAKNTVYIQMNSLKPEDTAVYYCAVRFTFPRYPASYSRYYYWGQGTQVTVSS”, the “polyreactivity (PSR sort gate)” value was “high polyreactivity”.
The same measure for “QVQLVESGGGLVQAGGSLRLSCAASGSIFWYYGMGWYRQAPGKERELVAAISSGGSTNYADSVKGRFAISRDNAKNTVYLQMNRLKPEDTAVYYCATKGYLWGQGTQVTVSS”: “high polyreactivity”; for “QVQLVESGGGLVQAGGSLRLSCAASGSIFWYYVMGWYRPAPGKERELVAAISNVSTYYADSVKGRFTISRDNAKNTVYLQMNSLKPEDTAVYYCAARGLLWYYSWRYYYWGQGTQVTVSS”: “low polyreactivity”.
With “QVQLVESGGGLVQAGGSLRLSCAASGSIFYANDMGWYRQAPGKERELVADITSDSTYYADSVKGRFTISRDNAKNTVYLQMNSLKPEDTAVYYCAADVYGVHAPQSDYWTKYDYWGQGTQVTVSS” the entry was “low polyreactivity”.
With “QVQLVESGGGLVQAGGSLRLSCAASGSIFYAYAMGWYRQAPGKEREFVAVISYSGGSTYYADSVKGRFTISRDNAKNTVYLQMYSLKPEDTAVYYCAARYRRPYSYYYWGQGTQVTVSS” the entry was “high polyreactivity”; with “QVQLVESGGGLVQAGGSLRLSCAASGSIFYAYGMGWYRQAPGKERELVAAISSRGGSTHYADSVKGRFTISRDNAKNTVYLQMNSLKPEDTAVYYCAARHAYPYRRGDFNYWGQGTQVTVSS”, “high polyreactivity”.
In the case of “QVQLVESGGGLVQAGGSLRLSCAASGSIFYAYVMGWYRQAPGKERELVAAIDIGGGTYADSVKGRFTISRDNAKNTVYLQMNMLKPEDTAVYYCAKAGYFSRGVYVYYLDEYDYWGQGSQVTVSS”, the “polyreactivity (PSR sort gate)” value is on record as “high polyreactivity”.
Take “QVQLVESGGGLVQAGGSLRLSCAASGSIFYDNALGWYRQAPGKERELVAAIDDSDRTYYADSVKGRFTISRDNAKNTVYLQMNSLKPEDTAVYYCARDRWKWHYGYDYWGQGTQVTVSS”: the “polyreactivity (PSR sort gate)” value is listed as “low polyreactivity”.
For “QVQLVESGGGLVQAGGSLRLSCAASGSIFYDNAMGWYRQAPGKERELVAAISGNDATTYYADSVKGRFTISRDNAKNTVYLQMNSLKPEDTAVYSCAADYVLNPWRTRYDYWGQGTQVTVSS”, the “polyreactivity (PSR sort gate)” value is “low polyreactivity”.
The same measure for “QVQLVESGGGLVQAGGSLRLSCAASGSIFYDNAMGWYRQAPGKERELVASIRWSGDSTYYADSVKGRFTISRDNAKNTVYLQMNSLKPEDTAVYYCAADPVEPYFTAIAYDFWGQGTQVTVSS”: “low polyreactivity”; for “QVQLVESGGGLVQAGGSLRLSCAASGSIFYDYAMGWYRQAPGKERELVAAISSSGSSTYYADSVKGRFTISRDNAKNTVYLQMNSLKPEDTAVYYCAAYSRRQWKYDYWGQGTQVTVSS”: “high polyreactivity”.
The same measure for “QVQLVESGGGLVQAGGSLRLSCAASGSIFYDYAMGWYSQEPGKERELVAAISSSGITYYADSVKGRFTISRDNAKTTVYLQMNSLKPEDTAVYYCNARSYLRDYDYWGQGTQVTVTS”: “high polyreactivity”; for “QVQLVESGGGLVQAGGSLRLSCAASGSIFYDYTMGWSRQAPGKERELVAAINSGGSTNYADSVKGRFTISRDNAKNTVYLQMNSLKPEDTAVYYCAAEPQFAFLDSRLWGSDYWGQGTQVTVSS”: “low polyreactivity”; for “QVQLVESGGGLVQAGGSLRLSCAASGSIFYENAMGWYRQAPGKERELVAAISRSGGSTYYADSVKGRFTISRDNAKNSVYLQMNSLKPEDTAVYYCAADVYVFIGDYWGQGTQVTVSS”: “low polyreactivity”.
With “QVQLVESGGGLVQAGGSLRLSCAASGSIFYENVMGWYRQAPGKERELVAGISRSGGRTYYADSVKGRFTISRDNAKNTVYLQMNSLKPEDTAVYYCNAARVYLSEWGQGTQVTVSS” the entry was “high polyreactivity”; with “QVQLVESGGGLVQAGGSLRLSCAASGSIFYFNAMGWYRQAPGKDRELVAAITYNGGSTRYADSVKGRFTISRDNAKNTVYLQMNSLKPEDTAVYYCAARAKYGPEDGYWGQGTQVTVSS”, “high polyreactivity”; with “QVQLVESGGGLVQAGGSLRLSCAASGSIFYFNAMGWYRQAPGKERELVAAINWRGDRTYYADSVKRRFTISRDNAKNTVYLQMNSLKPEDTAVYYCNAVRVHAYSTGEYGYWGQGTQVTVSS”, “high polyreactivity”.
Turning to “QVQLVESGGGLVQAGGSLRLSCAASGSIFYFNAMGWYRQAPGKERELVAGISARGGSTYYADSVKGRFTISRDNAKNTVYLQMNSLKPEDTAVYYCAAYGTTRSRKRGFAWWGYDYWGQGTQVTVSS”, the “polyreactivity (PSR sort gate)” value is reported as “low polyreactivity”.
With “QVQLVESGGGLVQAGGSLRLSCAASGSIFYFNAMGWYRQAPGKERELVARISGSSGRTYFADSVKGRFTISRDNAKNTVYLQMNSLKPEDTAVYYCAARYYTSATMDYWGQGTQVTVSS” the entry was “high polyreactivity”; with “QVQLVESGGGLVQAGGSLRLSCAASGSIFYFNAMGWYRRAPGKERELVAGISARGGSTYYADSVKGRFTISRDHAKNTVYIQMNSLKPEDTAGYYCAAYGTTRSRKRAFAWWGYDYWGQGTQVTVSS”, “low polyreactivity”; with “QVQLVESGGGLVQAGGSLRLSCAASGSIFYFYAMGWYRQAPGKERELVAASRFTGGTTYYADSVKGRFTISRDNAKNTVYLQMNSLKPEDTAVYYCAKQTSYWSRGYDYWGQGTQVTVSS”, “low polyreactivity”.
The same measure for “QVQLVESGGGLVQAGGSLRLSCAASGSIFYFYAMGWYRQAPGKERELVATITRGGSTYYADSVKGRFTISRDNAKNTVYLQMNSLKPEDTAVYYCAADGWYWTYIVEYWGQGTQVTVSS”: “high polyreactivity”.
With “QVQLVESGGGLVQAGGSLRLSCAASGSIFYFYAMGWYRQAPGKERELVATITRRTGRTYYADSVKGRFTISRDNAKNTVYLQMNSLKPEDTAVYYCAARPKGPYGVWYNYWGQGTQVTVSS” the entry was “high polyreactivity”; with “QVQLVESGGGLVQAGGSLRLSCAASGSIFYFYTMGWYRQAPGKEREFVAAINGIGGSTYYADSVKGRFTISRDNAKNTVYLQMNSLKPEDTAVYYCAADAPWFKRNARKYNFWGQGTQVTVSS”, “low polyreactivity”; with “QVQLVESGGGLVQAGGSLRLSCAASGSIFYGNAMGRYRQAPGKERELVAGITGYGSPTYYADSVKGRFTISRDNAKNTVYLQMNSLKPEVTAVYYCARLTRTSRGMYDYWGQGTQVTVSS”, “high polyreactivity”.
On to “QVQLVESGGGLVQAGGSLRLSCAASGSIFYGNAMGWDRQAPGNARELVAAISWNGGSTYYADSVKGRFTISRDNAKNTVYLQMNSLKPEDTAVYYSNADYYYEVDSWGQGTQVTVSS”, for which the “polyreactivity (PSR sort gate)” value was “low polyreactivity”.
The same measure for “QVQLVESGGGLVQAGGSLRLSCAASGSIFYGNAMGWYRQAPGKERELVAAITRRGGRTYYADSVKGRFTISRDNAKNTVYLQMNSLKPEDTAVYYCNKDVGVAVEMGYWGQGTQVTVSS”: “high polyreactivity”.
With “QVQLVESGGGLVQAGGSLRLSCAASGSIFYGNGMGWYRQAPGKERELVAVISVSGGRTFYADSVKGRFTISRDNAKNTVYLQMNSLKPEDTAVYYCATRTYRVDPEFGYWGQGTQVTVSS” the entry was “high polyreactivity”; with “QVQLVESGGGLVQAGGSLRLSCAASGSIFYGNTMGWYRQAPGKERELVAAITWSGDSTYYADSVKGRFTISRDNAKNTVYLQMNSLKPEDTAVYYCNADQTGVYYAGEGNYWGQGTQVTVSS”, “low polyreactivity”.
Regarding “QVQLVESGGGLVQAGGSLRLSCAASGSIFYGYAMGWFRQAPGKEREFVADITSSGVSTYYADSVKGRFTISRDNAKNSVYLQINSLKPEDTAVYYCAKLRRYYSSVYHKFVFYTDDYWGQGSQVTVSS”, the “polyreactivity (PSR sort gate)” value was “high polyreactivity”.
With “QVQLVESGGGLVQAGGSLRLSCAASGSIFYGYAMGWYRQAAGKERELVARITGSGGDTSYADSVKGRFTISRDNSKNTVYLQMNSLKPEDTALYYCNTDLYITYTLYTGSEYDYWGQGTQVTVSS” the entry was “low polyreactivity”; with “QVQLVESGGGLVQAGGSLRLSCAASGSIFYGYAMGWYRQAPGKERELVAAIRYSDGSTYYADSVKGRFTISRDNAKNTVYLQMNSLKPEDTAVYYCAKKRRNYIGYYYWGQGTQVTVSS”, “high polyreactivity”.
With “QVQLVESGGGLVQAGGSLRLSCAASGSIFYGYAMGWYRQAPGKERELVAAITWIDGSTYYADSVKGRFTISRDNAKNPVFLQLTSLKPEDTAVYYCAAGGYFYSFYYWGQGTQVTVSS” the entry was “low polyreactivity”; with “QVQLVESGGGLVQAGGSLRLSCAASGSIFYGYAMGWYRQATGKERELVAAITSGGSTYYADSVKGRFTISRDNAKNTVYLQMNSLKPEDTAVYYCAADYPSRYWRIDYEYWGQGTQVTVSS”, “high polyreactivity”; with “QVQLVESGGGLVQAGGSLRLSCAASGSIFYGYTMGWSRQAPGKEREFVAAITGSGGSTYYADSVKGRFTISRDTPKNTVYVQMNTLKPEDTAVYYCAARRYVNRRYDYWGQGTQVTVSS”, “high polyreactivity”.
The same measure for “QVQLVESGGGLVQAGGSLRLSCAASGSIFYGYTMGWYRQEPRKERELVAAIRKSGGSTNYADSVKGRFTISRDTAKNTVYLQMNSLKPEDTALYNCAADYYRRRGYYWGQGTQVTVSS”: “high polyreactivity”; for “QVQLVESGGGLVQAGGSLRLSCAASGSIFYHNAMGWYRQAPGKERELVAAISYRTGRTYYADSVKGRFTISRDNAKNTVYLQMNSLKPEDTAVYYCAAPYSWGQGTQVTVSS”: “high polyreactivity”.
In the case of “QVQLVESGGGLVQAGGSLRLSCAASGSIFYHNTMGWYIQAPGKERELITYYADSVKGRFTISRDNAKNTVYLQMNSLKPEDTAVYYCAASPVSRTGPGDYDFWGQGTQVTVSS”, the “polyreactivity (PSR sort gate)” value is reported as “low polyreactivity”.
“QVQLVESGGGLVQAGGSLRLSCAASGSIFYHYAMGWSRQAPGKERELVAAITRSGGSTYYADSVKGRFTISRDNAKHTVYLQMNSLKPEDTAVYYCAKDPDSYNFLTSNWYDYWGQGTQVTVSS”: the “polyreactivity (PSR sort gate)” value was “low polyreactivity”.
